Experimental findings from US20200190159A1 are described below.

In test [1] the target is recombinant tetranectin (TN) (human) (UniProt P05452). Kind of test: SPR (BIAcore), TN immobilized on CM5 chip, HMGB1 as analyte at various concentrations; apparent Kd.
Test [2] shares this target. The experiment in a line: BIAcore SPR; recombinant TN immobilized on the sensor chip, HMGB1 as analyte at 31, 62, 125, 250, 500 and 1000 nM.

Chain of recombinant tetranectin (TN) (human) (P05452 22-202): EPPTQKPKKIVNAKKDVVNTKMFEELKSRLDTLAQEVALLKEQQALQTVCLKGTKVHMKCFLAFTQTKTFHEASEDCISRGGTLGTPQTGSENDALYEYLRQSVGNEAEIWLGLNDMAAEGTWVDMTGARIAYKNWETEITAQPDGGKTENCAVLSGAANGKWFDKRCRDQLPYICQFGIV

Consider “high mobility group box-1 (HMGB1) protein”, for which the Kd stood at 570 nM in test [1] and 520 nM in test [2].
